Kd and stoichiometry N (Fabs per F trimer) data for 2 substances are collected here from article PMC6658013.

The target in assay [1] is prefusion-stabilized RSV F (DS-Cav1), subtype B (strain B9320), with C-terminal His tag and Strep-ta (human respiratory syncytial virus subtype B (strain B9320)). Kind of assay: SPR. On the technique in general: In SPR one partner is held on a chip, and binding of the other changes the refractive index at the surface.
Assay [2] addresses prefusion-stabilized RSV F (DS-Cav1), subtype A (strain A2), with C-terminal His tag and Strep-tag I (human respiratory syncytial virus subtype A (strain A2)) (UniProt P03420). Put plainly: SPR.
The target of assay [3] is subtype A DS-Cav1 with a K209Q substitution (form used for SPR) (human respiratory syncytial virus subtype A (strain A2)) (UniProt P03420). Put plainly: SPR.
For assay [4], the target named is prefusion-stabilized RSV F variant DS-Cav1 from strain A2, tags removed, Endo H-treated (form used for crystallization) (human respiratory syncytial virus subtype A (strain A2)) (UniProt P03420). Put plainly: crystal structure.

Sequence of AM22 antigen-binding fragment (Fab) (VH): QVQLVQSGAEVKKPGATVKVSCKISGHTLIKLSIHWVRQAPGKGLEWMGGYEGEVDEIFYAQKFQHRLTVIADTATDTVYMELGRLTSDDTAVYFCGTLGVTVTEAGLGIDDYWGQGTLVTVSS
Sequence of AM22 antigen-binding fragment (Fab) (VL): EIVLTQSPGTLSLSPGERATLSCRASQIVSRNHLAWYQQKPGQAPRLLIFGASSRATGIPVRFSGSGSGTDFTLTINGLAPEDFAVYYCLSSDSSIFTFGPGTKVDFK

For orientation: Kd means the concentration at which binding is half-saturated. With AM22 antigen-binding fragment (Fab), the Kd in assay [1] is 6.1 nM; in assay [2], 0.12 nM; in assay [3] it was 6.7 nM. For the same substance, the stoichiometry N (Fabs per F trimer) in assay [4] stood at 3.

On to D25 Fab, for which the Kd in assay [1] was 0.33 nM; in assay [2], < 0.064 nM.
